Laboratory results as given in paper PMC12713027.

Molecular target: NAA15-mCherry (rice (Oryza sativa, japonica cultivar Zhonghua 11))
Experiment: FRET or BRET; FLIM-FRET in rice protoplasts, donor NAA10-eGFP and acceptor NAA15-mCherry co-expressed with pRTV-RESIS, 16 h after transfection

Substance: NAA10-eGFP (natural protein)
- mean fluorescence lifetime of the donor (co-expressed with RESIS): 2.45 ns
